According to patent US20220033484A1 (FAPON BIOTECH, published 2022):

Biological target: T1, cTnI quality control product recombinant protein (human, UniProt P19429 2-210, limits assumed)
T1 construct: treated as the same molecule; also called cTnI antigen; cardiac troponin I
Experiment: AMC sensor, antibody immobilised, cTnI in solution
Method: Operating process: it is equilibrated in Buffer 1 (PBST) for 60 s, the antibody is immobilized in an antibody solution for 300 s, incubated in Buffer 2 (PBST) for 180 s, bound in antigen solution for 420 s, dissociated in the Buffer 2 for 1200 s, 10 mM of GLY solution with pH 1.69 and Buffer 3 are used for sensor regeneration, and data is output. KD represents an equilibrium dissociation constant, namely the affinity; Kon represents a binding rate; and Kd is represents a dissociation rate.

T1 sequence (P19429 2-210 limits assumed): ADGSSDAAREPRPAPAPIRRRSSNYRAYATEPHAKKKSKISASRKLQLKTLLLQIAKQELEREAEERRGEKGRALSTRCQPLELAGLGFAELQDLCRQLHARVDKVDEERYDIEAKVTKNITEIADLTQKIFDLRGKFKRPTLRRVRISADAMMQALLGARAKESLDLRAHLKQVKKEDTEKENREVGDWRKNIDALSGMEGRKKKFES

Binder	Kd [nM]	koff [s⁻¹]	kon [M⁻¹ s⁻¹]
Mutation 1-43 (antibody, V domains shown, Built as m8) VH: EVQLQQSGPELVKPGASVKMSCKASGYTFTIYVLHWVKQKPGQGLEWIGYIYPYIDGTKYNEKFKGKATLTVDKSSSTAFMELSSLTSEDSAVYYCARSGYGNYGLAWLAYWGQGTLVTVSA VL: QAVVIQESALTTSPGETVTLTCRSSTGAATTSQYANWVQEKPDHLFTGLIGGSQNRAPGVPARFSGSLIGDKAALTITGAQTEDEAIYFCALVYSNQWVFGGGTKLTVLG	0.464	3.38e-05	72900
Mutation 1-41 (antibody, V domains shown, Built as m8) VH: EVQLQQSGPELVKPGASVKMSCKASGYTFTLYVIHWVKQKPGQGLEWIGYINPYIDGTKYNEKFKGKATLTVDKSSSTAFMELSSLTSEDSAVYYCARSGYGNYGLAWLAYWGQGTLVTVSA VL: QAVVIQESALTTSPGETVTLTCRSSTGAVTTSNYANWVQEKPDHLFTGLIGGSQNRAPGVPARFSGSLIGDKAALTITGAQTEDEAIYFCALVYSNQWVFGGGTKLTVLG	7.89	0.000647	82000
Mutation 1-49 (antibody, V domains shown, Built as m8) VH: EVQLQQSGPELVKPGASVKMSCKASGYTFTLYVLHWVKQKPGQGLEWIGYINPYLDGTKYNEKFKGKATLTVDKSSSTAFMELSSLTSEDSAVYYCARSGYGNYGLAWLAYWGQGTLVTVSA VL: QAVVIQESALTTSPGETVTLTCRSSTGAVTTSQYANWVQEKPDHLFTGLIGGSQNRAPGVPARFSGSLIGDKAALTITGAQTEDEAIYFCALVYSNNWVFGGGTKLTVLG	1.51	0.000134	88400
Mutation 1-47 (antibody, V domains shown, Built as m8) VH: EVQLQQSGPELVKPGASVKMSCKASGYTFTLYVIHWVKQKPGQGLEWIGYINPYLDGTKYNEKFKGKATLTVDKSSSTAFMELSSLTSEDSAVYYCARSGYGGYGLAWLAYWGQGTLVTVSA VL: QAVVIQESALTTSPGETVTLTCRSSTGAATTSQYANWVQEKPDHLFTGLIGGSQNRAPGVPARFSGSLIGDKAALTITGAQTEDEAIYFCALVYSNHWVFGGGTKLTVLG	3.05	0.000196	64100
Mutation 1-44 (antibody, V domains shown, Built as m8) VH: EVQLQQSGPELVKPGASVKMSCKASGYTFTIYVIHWVKQKPGQGLEWIGYIQPYIDGTKYNEKFKGKATLTVDKSSSTAFMELSSLTSEDSAVYYCARSGYGGYGLAWLAYWGQGTLVTVSA VL: QAVVIQESALTTSPGETVTLTCRSSTGAATTSNYANWVQEKPDHLFTGLIGGSNNRAPGVPARFSGSLIGDKAALTITGAQTEDEAIYFCALVYSNNWVFGGGTKLTVLG	6.56	0.000205	31300
Mutation 1-48 (antibody, V domains shown, Built as m8) VH: EVQLQQSGPELVKPGASVKMSCKASGYTFTIYVVHWVKQKPGQGLEWIGYIYPYIDGTKYNEKFKGKATLTVDKSSSTAFMELSSLTSEDSAVYYCARSGYGQYGLAWLAYWGQGTLVTVSA VL: QAVVIQESALTTSPGETVTLTCRSSTGAATTSNYANWVQEKPDHLFTGLIGGSNNRAPGVPARFSGSLIGDKAALTITGAQTEDEAIYFCALVYSNQWVFGGGTKLTVLG	0.553	4.32e-05	78200
Mutation 1-52 (antibody, V domains shown, Built as m8) VH: EVQLQQSGPELVKPGASVKMSCKASGYTFTIYVVHWVKQKPGQGLEWIGYINPYLDGTKYNEKFKGKATLTVDKSSSTAFMELSSLTSEDSAVYYCARSGYGNYGLAWLAYWGQGTLVTVSA VL: QAVVIQESALTTSPGETVTLTCRSSTGAATTSQYANWVQEKPDHLFTGLIGGSNNRAPGVPARFSGSLIGDKAALTITGAQTEDEAIYFCALVYSNNWVFGGGTKLTVLG	6.01	0.000492	81800
Mutation 1-46 (antibody, V domains shown, Built as m8) VH: EVQLQQSGPELVKPGASVKMSCKASGYTFTIYVLHWVKQKPGQGLEWIGYINPYIDGTKYNEKFKGKATLTVDKSSSTAFMELSSLTSEDSAVYYCARSGYGNYGLAWLAYWGQGTLVTVSA VL: QAVVIQESALTTSPGETVTLTCRSSTGAVTTSNYANWVQEKPDHLFTGLIGGSNNRAPGVPARFSGSLIGDKAALTITGAQTEDEAIYFCALVYSNNWVFGGGTKLTVLG	5.41	0.000217	40100
Mutation 1-55 (antibody, V domains shown, Built as m8) VH: EVQLQQSGPELVKPGASVKMSCKASGYTFTIYVVHWVKQKPGQGLEWIGYIYPYIDGTKYNEKFKGKATLTVDKSSSTAFMELSSLTSEDSAVYYCARSGYGGYGLAWLAYWGQGTLVTVSA VL: QAVVIQESALTTSPGETVTLTCRSSTGAVTTSQYANWVQEKPDHLFTGLIGGSQNRAPGVPARFSGSLIGDKAALTITGAQTEDEAIYFCALVYSNNWVFGGGTKLTVLG	4.31	0.000239	55400
Mutation 1-53 (antibody, V domains shown, Built as m8) VH: EVQLQQSGPELVKPGASVKMSCKASGYTFTIYVVHWVKQKPGQGLEWIGYIYPYIDGTKYNEKFKGKATLTVDKSSSTAFMELSSLTSEDSAVYYCARSGYGGYGLAWLAYWGQGTLVTVSA VL: QAVVIQESALTTSPGETVTLTCRSSTGAVTTSNYANWVQEKPDHLFTGLIGGSQNRAPGVPARFSGSLIGDKAALTITGAQTEDEAIYFCALVYSNQWVFGGGTKLTVLG	8.38	0.000543	64800
Mutation 1-54 (antibody, V domains shown, Built as m8) VH: EVQLQQSGPELVKPGASVKMSCKASGYTFTIYVVHWVKQKPGQGLEWIGYINPYLDGTKYNEKFKGKATLTVDKSSSTAFMELSSLTSEDSAVYYCARSGYGQYGLAWLAYWGQGTLVTVSA VL: QAVVIQESALTTSPGETVTLTCRSSTGAATTSNYANWVQEKPDHLFTGLIGGSNNRAPGVPARFSGSLIGDKAALTITGAQTEDEAIYFCALVYSNQWVFGGGTKLTVLG	7.78	0.000321	41300
Mutation 1-51 (antibody, V domains shown, Built as m8) VH: EVQLQQSGPELVKPGASVKMSCKASGYTFTIYVVHWVKQKPGQGLEWIGYIQPYIDGTKYNEKFKGKATLTVDKSSSTAFMELSSLTSEDSAVYYCARSGYGQYGLAWLAYWGQGTLVTVSA VL: QAVVIQESALTTSPGETVTLTCRSSTGAATTSQYANWVQEKPDHLFTGLIGGSNNRAPGVPARFSGSLIGDKAALTITGAQTEDEAIYFCALVYSNHWVFGGGTKLTVLG	7.3	0.000223	30500
Mutation 1-45 (antibody, V domains shown, Built as m8) VH: EVQLQQSGPELVKPGASVKMSCKASGYTFTLYVVHWVKQKPGQGLEWIGYIQPYLDGTKYNEKFKGKATLTVDKSSSTAFMELSSLTSEDSAVYYCARSGYGQYGLAWLAYWGQGTLVTVSA VL: QAVVIQESALTTSPGETVTLTCRSSTGAVTTSQYANWVQEKPDHLFTGLIGGSQNRAPGVPARFSGSLIGDKAALTITGAQTEDEAIYFCALVYSNQWVFGGGTKLTVLG	7.41	0.000286	38600
Mutation 1-50 (antibody, V domains shown) VH: EVQLQQSGPELVKPGASVKMSCKASGYTFTIYVIHWVKQKPGQGLEWIGYIYPYIDGTKYNEKFKGKATLTVDKSSSTAFMELSSLTSEDSAVYYCARSGYGGYGLAWLAYWGQGTLVTVSA VL: QAVVIQESALTTSPGETVTLTCRSSTGAATTSQYANWVQEKPDHLFTGLIGGSQNRAPGVPARFSGSLIGDKAALTITGAQTEDEAIYFCALVYSNHWVFGGGTKLTVLG	4.61	0.000233	50500
